Data reported in publication PMC7524730.
Read-outs that look alike come from different tables or passages of the source.

Key:
PRMT5 = PRMT5 (UniProt O14744); experiment: co-IP and immunoblot; conditions: reference: LSH wild type; sites S503

## LSH (lymphoid-specific helicase; HELLS) (from UniProt Q9NRZ9) LSH S503A
PRMT5
  binding against the reference: stronger

## LSH (lymphoid-specific helicase; HELLS, PASG, SMARCA6): S503A
Phosphorylation at S503
  localisation_or_trafficking: no change
  other: increases

## LSH (lymphoid-specific helicase; HELLS, PASG, SMARCA6): R541A
Methylation at R541
  other: no change

## LSH (lymphoid-specific helicase; HELLS, PASG, SMARCA6): Lambda Protein Phosphatase (λPP)
Phosphorylation at S503
  other: increases

## LSH (lymphoid-specific helicase; HELLS, PASG, SMARCA6): S503D phosphomimic
Phosphorylation at S503
  other: decreases

## LSH (lymphoid-specific helicase; HELLS, PASG, SMARCA6): R507A
Methylation at R507
  other: no change

## LSH (lymphoid-specific helicase; HELLS, PASG, SMARCA6): R309A
Methylation at R309
  localisation_or_trafficking: no change
  other: increases

## LSH (lymphoid-specific helicase; HELLS, PASG, SMARCA6): MAPK1 shRNA knockdown; LY3214996 (MAPK1/2 inhibitor)
Phosphorylation at S503
  other: increases
